Data: patent US9388233

Molecular target: I-SceI mutants selected from G13/P14/N15/K20 saturation library (UniProt P03882)
Test: cell_activity
Conditions: first selection round, library pool; individual mutants not given

Chain of UniProt P03882 (P03882 whole entry, change not shown): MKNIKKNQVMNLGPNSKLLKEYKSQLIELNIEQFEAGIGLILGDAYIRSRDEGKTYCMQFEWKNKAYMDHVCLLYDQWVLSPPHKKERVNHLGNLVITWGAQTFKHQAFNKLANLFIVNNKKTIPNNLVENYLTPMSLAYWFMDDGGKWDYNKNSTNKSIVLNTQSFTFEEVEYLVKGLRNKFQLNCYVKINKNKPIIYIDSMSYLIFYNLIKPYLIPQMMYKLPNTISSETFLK

## TAGGGATAACAGGGGTCT (double strand) [T3i1]
  activity (fold cell survival vs wild type): 10
